These results are taken from patent US20210147541A1 (Kyowa Kirin, published 2021).

In assay [1] the target is T1, mCADM3-GST (mouse).
T1 construct: also called extracellular domain of mouse CADM3 to which GST was added at the C-terminal side; mouse CADM3-GST
Put plainly: phage ELISA, mCADM3-GST immobilized. Here is the method:
(§1) In the ELISA, hCADM3-GST and mCADM3-GST were immobilized (50 ng/50 μL) on MAXISORP (manufactured by NUNC, Inc.), followed by blocking using 0.5% BSA. To each well, each phage clone was added and allowed to react at room temperature for 1 hour, and thereafter, each well was washed 5 times with PBS-T. Subsequently, a biotinylated anti-M13 phage antibody (manufactured by Abcam plc) and horseradish peroxidase-labeled streptavidin (manufactured by Vector Co., Ltd.) were added to each well in an amount of 50 μL, followed by incubation at room temperature for 1 hour.
(§2) After the microplate was washed with PBS-T, a 3,3′,5,5′-tetramethylbenzidine (TMB) chromogenic substrate solution (manufactured by Calbiochem, Inc.) was added to each well, followed by incubation at room temperature. The coloring reaction was stopped by adding a 1 mol/L hydrochloric acid to each well, and an absorbance at a wavelength of 450 nm (reference wavelength: 570 nm) was measured using a microplate reader.

Assay [2] concerns the target T2, hCADM3-GST (human).
T2 construct: also called extracellular domain of human CADM3 to which GST was added at the C-terminal side; human CADM3-GST
As to the kind of experiment: phage ELISA, hCADM3-GST immobilized. Here is the method:
as §1, §2
(An ELISA detects its analyte on a solid surface through an enzyme-linked reagent.)

The target in assay [3] is T3, mouse CADM3 (mouse, UniProt Q99N28 23-396).
T3 construct: Full-length gene expressed transiently on Expi293F cells; also called mouse CADM3/Expi293F cells; Mouse CADM3-expressing cells
T3 sequence: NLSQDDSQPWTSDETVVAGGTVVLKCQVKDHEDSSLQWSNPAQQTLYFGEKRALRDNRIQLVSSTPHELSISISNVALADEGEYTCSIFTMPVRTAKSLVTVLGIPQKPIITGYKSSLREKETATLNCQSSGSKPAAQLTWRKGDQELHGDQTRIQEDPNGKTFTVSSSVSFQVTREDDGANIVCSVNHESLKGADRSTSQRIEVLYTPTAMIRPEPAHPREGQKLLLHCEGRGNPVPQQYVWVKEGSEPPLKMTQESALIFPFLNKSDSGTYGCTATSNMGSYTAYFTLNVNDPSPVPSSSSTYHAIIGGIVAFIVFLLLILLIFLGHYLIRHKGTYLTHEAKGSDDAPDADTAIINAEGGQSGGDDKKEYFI
As to the kind of experiment: flow cytometry, mouse CADM3/Expi293F vs parent Expi293F cells.

Assay [4] concerns the target T3, mouse CADM3. Put plainly: flow cytometry, 10 ug/mL, mouse CADM3/Expi293F vs parent Expi293F cells. Here is the method:
(§3) After washing with SB, the cells were suspended in SB, and the fluorescence intensity of each cell was measured using a flow cytometer FACS CANTO II (manufactured by Becton, Dickinson and Company). Note that as a negative control, 10 μg/mL of the anti-AVM antibody was used.
(§4) The detection results were analyzed, and a mean fluorescence intensity (MFI) was calculated using a geometric mean. Further, with respect to the MFI when the concentration of each antibody was 10 μg/mL, the ratio of the MFI (mean fluorescence intensity ratio) between the human CADM3/Expi293F cells and the Expi293F cells (parent cell line) was calculated.
(§5) With respect to the produced humanized anti-CADM3 VHH-Fc antibodies, reactivity with Expi293F cells, human CADM3/Expi293F cells, and mouse CADM3/Expi293F cells was analyzed by the same procedure as in Example 3.
On the technique in general: A flow cytometer gives signals particle by particle.

The target of assay [5] is T3, mouse CADM3. The assay is described as above. Here is the method: as §3, §4, §5
The source holds these as a separate data set.

The target of assay [6] is T3, mouse CADM3. Described as above. The source holds these as a separate data set.
Assay [7] concerns the target T3, mouse CADM3. The assay is described as above. Here is the method: as §3, §4
Further, also with respect to AVM IgG4PE(R409K)_iCADM3_3R1-L5 dVHH, AVM IgG4PE(R409K)_iCADM3_3R1-L8 dVHH, AVM IgG4PE(R409K)_iCADM3_3R1-L10 dVHH, and AVM IgG4PE(R409K)_iCADM3_3R1-L11 dVHH, reactivity with the Expi293F cells, the human CADM3/Expi293F cells, and the mouse CADM3/Expi293F cells was analyzed by the same procedure, and the results are shown in Table 5.
This is another data set of the same source.

Assay [8] deals with T2, hCADM3-GST. As to the kind of experiment: SPR (Biacore T-100), antibody captured, hCADM3-GST as analyte. Here is the method: (§6) The affinity of the anti-CADM3 antibodies produced in Example 2 for human CADM3 and mouse CADM3 was measured using Biacore T-100 (GE Healthcare). Each of the antibodies was immobilized on a […] sensor chip using a Human antibody Capture kit, and the binding ability was evaluated using hCADM3-GST and mCADM3-GST produced in Example 4 as analytes.
(§7) With respect to the produced humanized anti-CADM3 antibodies, affinity for CADM3 by surface plasmon resonance detection was evaluated by the same procedure as in Example 6.

The target in the next assay is T4, human CADM3 (human, UniProt Q8N126 25-398).
T4 construct: Full-length gene expressed transiently on Expi293F cells; also called cell adhesion molecule 3; human CADM3/Expi293F cells
T4 sequence: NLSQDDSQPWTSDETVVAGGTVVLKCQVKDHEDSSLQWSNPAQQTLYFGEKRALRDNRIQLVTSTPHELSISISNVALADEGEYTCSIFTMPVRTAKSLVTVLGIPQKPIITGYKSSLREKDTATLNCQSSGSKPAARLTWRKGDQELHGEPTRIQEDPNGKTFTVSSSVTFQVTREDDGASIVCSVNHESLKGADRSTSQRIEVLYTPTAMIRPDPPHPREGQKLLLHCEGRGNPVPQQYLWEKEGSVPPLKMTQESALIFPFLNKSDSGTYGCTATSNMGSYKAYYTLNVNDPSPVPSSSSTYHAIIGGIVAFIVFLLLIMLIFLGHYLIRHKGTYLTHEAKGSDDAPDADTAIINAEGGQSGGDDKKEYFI
As to the kind of experiment: flow cytometry, 10 ug/mL, human CADM3/Expi293F vs parent Expi293F cells. Here is the method:
as §3, §4, §5

The target in assay [9] is T1, mCADM3-GST. Put plainly: SPR (Biacore T-100), antibody captured, mCADM3-GST as analyte. Here is the method:
as §6, §7
For orientation: SPR reads the build-up and loss of mass on a sensor chip optically.

Substitutions are numbered along the chain they refer to. Names and notes keep the numbering of the source. Like-named read-outs stand apart in the source and are kept apart here.

B1: iCADM3_3R1-L5 (VHH)
VHH: QVQLVESGGGLVQAGGSLRLSCAASGSIVSVNAMGWYRQAPGKQRELVATITSGGSTNYADSAKGRFTISRDNAKNTMYLQMNSLKPEDTAVYYCNGEFWSRRDTRPPGVVNYWGQGTQVTVSS
notes: also called iCADM3-3R1-L5 antibody; anti-CADM3 VHH antibody (phage clone)
As for B1, the binding result with mCADM3-GST [1] and with hCADM3-GST [2] was “binds” in each case.

B2: iCADM3_3R1-L11 (VHH)
VHH: QVQLVESGGGLVQAGGSLRLSCAASGSIFSFNAMGWYRQAPGKQRGLVAVITSGGYTNYADSVKGRFTITRDNAKNTVYLQMNSLKPEDTAVYYCNAEGVYSDYVIMNYWGQGTQVTVSS
notes: also called iCADM3-3R1-L11 antibody; anti-CADM3 VHH antibody (phage clone)
B2: the binding result in the assay with mCADM3-GST [1] and in the assay with hCADM3-GST [2] was “binds” each time.

B3: iCADM3_3R1-L10 (VHH)
VHH: QVQLVESGGGLVQAGGSLRLSCAASGSIFSIHAMGWYRQAPGKQRELVATVTSGGSTNYADSVKGRFTISRDNAKNTVYLQMNSLKPEDTAVYYCNAETPYYSSTYYTNYWGQGTQVTVSS
notes: also called iCADM3-3R1-L10 antibody; anti-CADM3 VHH antibody (phage clone)
On to B3, for which the binding result with mCADM3-GST [1] and with hCADM3-GST [2] was “binds” in each case.

B4: anti-AVM antibody (antibody, V domains shown)
VH: EVQLVESGGGLVQPGRSLKLSCAASGFTFSNYAMAWVRRAPTKGLEWVASISNGGGNTYYRDSVKGRFTISRDDAKNTLYLQMDSLRSEDTATYYCARHGNYIYYGSFFDYWGQGVMVTVSS
VL: QFVLSQPNSVSTNLGSTVKLSCKRSTGNIGSNYVSWYQQHEGRSPTTMIYRDDKRPDGVPDRFSGSIDRSSDSALLTINNVQTEDEADYFCQSYSSGINIFGGGTKLTVLG
notes: Negative control; also called chimeric anti-Avermectin (AVM) antibody; anti-AVM-IgG4 antibody
With B4, in the assay with mouse CADM3 [3], the binding result is on record as “no binding (tested: 10 ug/mL)”. Besides, the “Mean fluorescence intensity ratio” value was found to be 1.02 with mouse CADM3 [4], 1.02 in the assay with mouse CADM3 [5], 1.07 with mouse CADM3 [6] and 1.15 with mouse CADM3 [7].

B5: iCADM3_3R1-L8_04 VHH-hG4PE(R409K) (Fc fusion)
chain: QVQLVESGGGLVQPGGSLRLSCAASGRTFSNYARGWFRQAPGKEREFVAAIDYSGGSTNYADSAKGRFTISRDNSKNTVYLQMNSLRAEDTAVYYCAAPASRRPSWDADGYDYWGQGTLVTVSS
notes: also called iCADM3-3R1-L8_04 humanized antibody; not shown: Hinge-CH2-CH3 region of the human IgG4 heavy chain constant region (IgG4 variant)
As a reminder, the Kd is a measure of binding affinity in units of concentration. A lower Kd goes with tighter binding. The koff is the rate constant with which the complex falls apart. High values mean a short-lived complex, low ones a long-lived complex. What is called kon is the second-order rate constant of association. In the assay with hCADM3-GST [8], B5 gave a Kd of 5.34 nM, a koff of 0.00078 s⁻¹ and a kon of 150000 M⁻¹ s⁻¹. For the same molecule, the “Mean fluorescence intensity ratio” value with mouse CADM3 [4] worked out at 9.62. Further, the “Mean fluorescence intensity ratio” value in the assay with human CADM3 was 6.2. In the assay with mCADM3-GST [9], this molecule displayed a Kd of 5.22 nM, a koff of 0.00064 s⁻¹ and an on-rate constant (kon) of 120000 M⁻¹ s⁻¹.

B6: iCADM3_3R1-L8_01 VHH-hG4PE(R409K) (Fc fusion)
chain: B5 chain with E6Q, E44G, V79L
notes: also called iCADM3-3R1-L8_01 humanized antibody; not shown: Hinge-CH2-CH3 region of the human IgG4 heavy chain constant region (IgG4 variant)
Consider B6, for which the “Mean fluorescence intensity ratio” value amounted to 3.71 in the assay with mouse CADM3 [4] and 2.21 in the assay with human CADM3.

B7: iCADM3_3R1-L8_03 VHH-hG4PE(R409K) (Fc fusion)
chain: B5 chain with E44G
notes: also called iCADM3-3R1-L8_03 humanized antibody; not shown: Hinge-CH2-CH3 region of the human IgG4 heavy chain constant region (IgG4 variant)
On to B7, for which the Kd with hCADM3-GST [8] came to 10.3 nM; in the assay with mCADM3-GST [9], 7.38 nM. For the same molecule, the koff with hCADM3-GST [8] was 0.0019 s⁻¹; in the assay with mCADM3-GST [9] it was 0.0011 s⁻¹. Besides, the values for the kon with hCADM3-GST [8] and with mCADM3-GST [9] were 190000 M⁻¹ s⁻¹ and 150000 M⁻¹ s⁻¹, respectively. The “Mean fluorescence intensity ratio” value with mouse CADM3 [4] stood at 8.54; in the assay with human CADM3, 5.65.

B8: iCADM3_3R1-L8_02 VHH-hG4PE(R409K) (Fc fusion)
chain: B5 chain with E6Q, V79L
notes: also called iCADM3-3R1-L8_02 humanized antibody; not shown: Hinge-CH2-CH3 region of the human IgG4 heavy chain constant region (IgG4 variant)
Take B8: the “Mean fluorescence intensity ratio” value was determined as 4.83 with mouse CADM3 [4] and 2.8 in the assay with human CADM3.
